Experimental data from article PMC7671035.

Assays:
LY3041658 (human) = test: SPR
human CXCL11 (human) = human CXCL11 (human) (UniProt O14625); test: ELISA
Chain of human CXCL11 (human) (O14625 22-94): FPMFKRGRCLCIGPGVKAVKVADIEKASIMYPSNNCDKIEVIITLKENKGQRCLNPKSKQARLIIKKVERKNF

Chain of human CXCL11 (O14625 22-94): as above
Chain of human CXCL9 (Q07325 23-125): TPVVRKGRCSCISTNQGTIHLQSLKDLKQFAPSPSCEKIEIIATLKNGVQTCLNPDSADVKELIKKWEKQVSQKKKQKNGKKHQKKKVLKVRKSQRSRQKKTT

Row | Substance | Kd (LY3041658 (human)) [µM] | fold shift in EC50 compared with the ELR+CXC chemokines (human CXCL11 (human)) [fold]
1 | human CXCL9 (from UniProt Q07325 23-125) (ligand) | 0.1 | 
2 | LY3041658 (antibody) |  | 200
3 | human CXCL11 (from UniProt O14625 22-94) (ligand) | 0.1 | 
